From article PMC6644156, “A de novo substitution in BCL11B leads to loss of interaction with transcriptional complexes and craniosynostosis” (Human Molecular Genetics, 2019)
Numbering of substitutions follows the chain as printed. In names and notes the source's numbering stands.

B1: BCL11B: FLAG-BCL11B, wild-type protein expressed in transfected HEK293T cells (protein)
chain: MSRRKQGNPQHLSQRELITPEADHVEAAILEEDEGLEIEEPSGLGLMVGGPDPDLLTCGQCQMNFPLGDILVFIEHKRKQCGGSLGACYDKALDKDSPPPSSRSELRKVSEPVEIGIQVTPDEDDHLLSPTKGICPKQENIAGPCRPAQLPAVAPIAASSHPHSSVITSPLRALGALPPCLPLPCCSARPVSGDGTQGEGQTEAPFGCQCQLSGKDEPSSYICTTCKQPFNSAWFLLQHAQNTHGFRIYLEPGPASSSLTPRLTIPPPLGPEAVAQSPLMNFLGDSNPFNLLRMTGPILRDHPGFGEGRLPGTPPLFSPPPRHHLDPHRLSAEEMGLVAQHPSAFDRVMRLNPMAIDSPAMDFSRRLRELAGNSSTPPPVSPGRGNPMHRLLNPFQPSPKSPFLSTPPLPPMPPGGTPPPQPPAKSKSCEFCGKTFKFQSNLIVHRRSHTGEKPYKCQLCDHACSQASKLKRHMKTHMHKAGSLAGRSDDGLSAASSPEPGTSELAGEGLKAADGDFRHHESDPSLGHEPEEEDEEEEEEEEELLLENESRPESSFSMDSELSRNRENGGGGVPGVPGAGGGAAKALADEKALVLGKVMENVGLGALPQYGELLADKQKRGAFLKRAAGGGDAGDDDDAGGCGDAGAGGAVNGRGGGFAPGTEPFPGLFPRKPAPLPSPGLNSAAKRIKVEKDLELPPAALIPSENVYSQWLVGYAASRHFMKDPFLGFTDARQSPFATSSEHSSENGSLRFSTPPGDLLDGGLSGRSGTASGGSTPHLGGPGPGRPSSKEGRRSDTCEYCGKVFKNCSNLTVHRRSHTGERPYKCELCNYACAQSSKLTRHMKTHGQIGKEVYRCDICQMPFSVYSTLEKHMKKWHGEHLLTNDVKIEQAERS
modifications: left off: FLAG, end not stated, kept
notes: FLAG-BCL11B, wild-type protein expressed in transfected HEK293T cells
B2: BCL11B p.R3S: FLAG-BCL11B p.R3S, patient-derived mutant protein expressed in transfected HEK293T cells (protein, UniProt Q9C0K0 1-894, looked up, variant R3S)
B-cell lymphoma/leukemia 11B: B1 chain with R3S
modifications: FLAG tag
notes: FLAG-BCL11B p.R3S, patient-derived mutant protein expressed in transfected HEK293T cells

Columns and labels:
PRC2 complex = assay: Co-immunoprecipitation with PRC2 complex (EZH2) in transfected HEK293T cells; format: binding; conditions: anti-FLAG co-IP, HEK293T extracts; EZH2 as PRC2 marker
Description: (§1) HEK293T cells were transfected with vectors encoding FLAG-BCL11B ([54]), FLAG-BCL11B p.R3S or Myc-SIRT1 using the calcium phosphate method. Transfected cells were harvested in ice-cold phosphate-buffered saline (PBS) 48 h after transfection. Cell suspensions were centrifuged at 2000g for 5 min, followed by lysis under native conditions in buffer containing 20 mM HEPES, pH 7.4, 250 mM NaCl, 2 mM EDTA, 10% glycerol, 0.5% NP-40, 0.1 mM PMSF, 1 μg/mL pepstatin A, 5 μg/mL leupeptin, 10 μM E64, 25 mM NaF, 5 mM […] and 10 mMN-ethylmaleimide. Cells were incubated on ice for 30 min with vortexing every 5 min, followed by sonication on ice to complete lysis and shear DNA. The lysate was cleared by centrifugation, and BCL11B was immunoprecipitated from native extracts with anti-FLAG antibody (Sigma F4042), as previously described ([54]). […] Fluorescent signal was recorded on an Odyssey dual-channel near-infrared imager (LI-COR) and analysed with manufacturer-supplied software (Image Studio, version 2.1).

SIRT1 = assay: Co-immunoprecipitation with SIRT1 in transfected HEK293T cells; format: binding; conditions: anti-FLAG co-IP, HEK293T extracts; Myc-SIRT1
Description: as §1

NuRD complex = assay: Co-immunoprecipitation with NuRD complex (MTA2, HDAC2) in transfected HEK293T cells; format: binding; conditions: anti-FLAG co-IP, HEK293T extracts; MTA2 and HDAC2 as NuRD markers
Description: as §1

HEK293T cells = assay: Immunocytochemistry (expression and nuclear localization) in HEK293T cells; format: cell-based; conditions: 48 h after transfection, anti-BCL11B and DAPI
Description: HEK293T cells were grown on 0.1% gelatin-coated glass coverslips in 24-well plates seeded at 25 000 cells/well for 24 h prior to transfection with vectors encoding FLAG-BCL11B or FLAG-BCL11B p.R3S. Forty-eight hours after transfection, cells were washed twice with PBS, fixed in 4% paraformaldehyde in PBS for 10 min at room temperature, permeabilized with 0.3% Triton X-100/PBS for 10 min and washed twice with 0.1% Tween/PBS. The fixed and permeabilized cells were then prepared for immunocytochemistry by blocking for 1 h in 10% foetal bovine serum (FBS) in PBS, incubating for 4 h with rat anti-BCL11B monoclonal antibody (Abcam ab18465, 0.25 μg/ml) in 10% FBS/PBS, then incubating for 1.5 h with an anti-rat Cy3-conjugated secondary antibody (Jackson ImmunoResearch Laboratories, 1:500 dilution), followed by a final incubation in 10 μg/ml DAPI in PBS for 10 min. Cells were washed twice with 0.1% Tween/PBS between each immunocytochemistry step, and all incubations were conducted at room temperature. Cells were then washed twice with deionized water, followed by step-wise dehydration with 70% ethanol, 100% ethanol and xylene. Coverslips were then mounted on glass slides with DPX (VWR), dried overnight and stored at 4°C in the dark. Fluoromicrographs were obtained using a Zeiss microscope with appropriate filters and a 63× oil-immersion objective. […]

Molecule	interaction with PRC2 complex (PRC2 complex)	interaction with SIRT1 (SIRT1)	interaction with NuRD complex (NuRD complex)	expression and nuclear localization (HEK293T cells)
B1	demonstrated herein	–	–	–
B2	does not interact with the NuRD or PRC2 complexes	did not alter interaction of the protein with the class III histone deacetylase SIRT1	does not interact with the NuRD or PRC2 complexes	well expressed and localized in the nucleus in a manner that was indistinguishable from wild-type protein
